Measured values reported in patent US20240002533A1 (Merck Sharp & Dohme, published 2024).
Blank lines part the entries; values can stand above or below the binder they belong to.

Molecular target: T1, human arginase 1, trimeric (full-length untagged hArg1 expressed in E. coli) (human, UniProt P05089 1-322)
T1 sequence: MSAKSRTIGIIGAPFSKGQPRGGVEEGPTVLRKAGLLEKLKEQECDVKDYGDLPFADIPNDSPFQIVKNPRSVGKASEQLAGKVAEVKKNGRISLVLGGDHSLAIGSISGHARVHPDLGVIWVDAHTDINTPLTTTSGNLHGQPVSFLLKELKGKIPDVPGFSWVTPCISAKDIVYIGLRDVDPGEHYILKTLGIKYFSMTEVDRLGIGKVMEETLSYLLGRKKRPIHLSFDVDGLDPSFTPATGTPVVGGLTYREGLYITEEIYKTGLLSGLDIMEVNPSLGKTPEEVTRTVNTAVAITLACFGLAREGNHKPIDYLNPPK
Assay: cell-based or functional assay

IC50 (% inhibition of hArg1 activity, arginine to ornithine by LC-MS): 3.3 nM
B1: Antibody mAb1 (chimeric: human VH1 and VL on a mouse IgG2a/kappa constant domain backbone) (antibody)
heavy: QVQLVQSGAEVKKPGASVKVSCKASGYTFTNYGISWVRQAPGQGLEWMGWISAYNGNTNYAQKLQGRVTMTTDTSTSTAYMELRSLRSDDTAVYYCAREGAYGYRSPYHNWFDPWGQGTLVTVSSAKTTAPSVYPLAPVCGDTTGSSVTLGCLVKGYFPEPVTLTWNSGSLSSGVHTFPAVLQSDLYTLSSSVTVTSSTWPSQSITCNVAHPASSTKVDKKIEPRGPTIKPCPPCKCPAPNLLGGPSVFIFPPKIKDVLMISLSPIVTCVVVDVSEDDPDVQISWFVNNVEVHTAQTQTHREDYNSTLRVVSALPIQHQDWMSGKEFKCKVNNKDLPAPIERTISKPKGSVRAPQVYVLPPPEEEMTKKQVTLTCMVTDFMPEDIYVEWTNNGKTELNYKNTEPVLDSDGSYFMYSKLRVEKKNWVERNSYSCSVVHEGLHNHHTTKSFSRTPGK
light: EIVMTQSPATLSLSPGERATLSCRASQSVSSYLAWYQQKPGQAPRLLIYDASNRATGIPARFSGSGSGTDFTLTISSLEPEDFAVYYCQQHSLLPRTFGGGTKVEIKRTVAAPTVSIFPPSSEQLTSGGASVVCFLNNFYPKDINVKWKIDGSERQNGVLNSWTDQDSKDSTYSMSSTLTLTKDEYERHNSYTCEATHKTSTSPIVKSFNRNEC

IC50 (% inhibition of hArg1 activity, arginine to ornithine by LC-MS): 5.3 nM
B2: Antibody mAb2 (chimeric: human VH1 and VL on a mouse IgG1 D265A/kappa constant domain backbone) (antibody)
heavy: QVQLVQSGAEVKKPGASVKVSCKASGYTFTNYGISWVRQAPGQGLEWMGWISAYNGNTNYAQKLQGRVTMTTDTSTSTAYMELRSLRSDDTAVYYCAREGAYGYRSPYHNWFDPWGQGTLVTVSSAKTTPPSVYPLAPGSAAQTNSMVTLGCLVKGYFPEPVTVTWNSGSLSSGVHTFPAVLQSDLYTLSSSVTVPSSTWPSETVTCNVAHPASSTKVDKKIVPRDCGCKPCICTVPEVSSVFIFPPKPKDVLTITLTPKVTCVVVAISKDDPEVQFSWFVDDVEVHTAQTQPREEQFNSTFRSVSELPIMHQDWLNGKEFKCRVNSAAFPAPIEKTISKTKGRPKAPQVYTIPPPKEQMAKDKVSLTCMITDFFPEDITVEWQWNGQPAENYKNTQPIMDTDGSYFVYSKLNVQKSNWEAGNTFTCSVLHEGLHNHHTEKSLSHSPGK
light: B1 light
